Data as given in patent US20200216495A1 (ADRX, published 2020).
Where “and” joins values, the source holds several entries; their conditions need not be identical. Identical values can stand only once. Square brackets hold non-standard residues; d marks the D form. Ends that are not written are not given here. dCit = NC(=O)NCCC[C@@H](N)C(=O)O; dNle = CCCC[C@@H](N)C(=O)O

B1: lkiriey (PEPTIDE ID NO: 324) (peptide)
peptide: [dL][dK][dI][dR][dI][dE][dY]
B2: rirlrw (PEPTIDE ID NO: 38) (peptide)
peptide: [dR][dI][dR][dL][dR][dW]
B3: gwrlkvrw (PEPTIDE ID NO: 209) (peptide)
peptide: G[dW][dR][dL][dK][dV][dR][dW]
modifications: also: all residues D-form, Gly1 is achiral
B4: arlrihw (PEPTIDE ID NO: 312) (peptide)
peptide: [dA][dR][dL][dR][dI][dH][dW]
B5: rirwywk (PEPTIDE ID NO: 311) (peptide)
peptide: [dR][dI][dR][dW][dY][dW][dK]
B6: fklklrwf (PEPTIDE ID NO: 57) (peptide)
peptide: [dF][dK][dL][dK][dL][dR][dW][dF]
B7: wrfkfrw (PEPTIDE ID NO: 215) (peptide)
peptide: [dW][dR][dF][dK][dF][dR][dW]
B8: wqlkvqw (PEPTIDE ID NO: 319) (peptide)
peptide: [dW][dQ][dL][dK][dV][dQ][dW]
B9: lkfrihy (PEPTIDE ID NO: 216) (peptide)
peptide: [dL][dK][dF][dR][dI][dH][dY]
B10: wmlrihw (PEPTIDE ID NO: 304) (peptide)
peptide: [dW][dM][dL][dR][dI][dH][dW]
B11: lkirimy (PEPTIDE ID NO: 219) (peptide)
peptide: [dL][dK][dI][dR][dI][dM][dY]
B12: wklwlrww (PEPTIDE ID NO: 12) (peptide)
peptide: [dW][dK][dL][dW][dL][dR][dW][dW]
B13: frikirw (PEPTIDE ID NO: 61) (peptide)
peptide: [dF][dR][dI][dK][dI][dR][dW]
B14: wrlaihw (PEPTIDE ID NO: 325) (peptide)
peptide: [dW][dR][dL][dA][dI][dH][dW]
B15: wrlwvrww (PEPTIDE ID NO: 310) (peptide)
peptide: [dW][dR][dL][dW][dV][dR][dW][dW]
B16: felrlhwh (PEPTIDE ID NO: 133) (peptide)
peptide: [dF][dE][dL][dR][dL][dH][dW][dH]
B17: lkiriayh (PEPTIDE ID NO: 303) (peptide)
peptide: [dL][dK][dI][dR][dI][dA][dY][dH]
B18: riklrw (PEPTIDE ID NO: 24) (peptide)
peptide: [dR][dI][dK][dL][dR][dW]
B19: lairihyh (PEPTIDE ID NO: 309) (peptide)
peptide: [dL][dA][dI][dR][dI][dH][dY][dH]
B20: wrlritw (PEPTIDE ID NO: 314) (peptide)
peptide: [dW][dR][dL][dR][dI][dT][dW]
B21: wrlrihw (PEPTIDE ID NO: 101) (peptide)
peptide: [dW][dR][dL][dR][dI][dH][dW]
B22: wrlkveww (PEPTIDE ID NO: 313) (peptide)
peptide: [dW][dR][dL][dK][dV][dE][dW][dW]
B23: lkizihy (PEPTIDE ID NO: 320) (peptide)
peptide: [dL][dK][dI][dCit][dI][dH][dY]
B24: wkvqvrlw (PEPTIDE ID NO: 2) (peptide)
peptide: [dW][dK][dV][dQ][dV][dR][dL][dW]
B25: wrrkvrww (PEPTIDE ID NO: 220) (peptide)
peptide: [dW][dR][dR][dK][dV][dR][dW][dW]
B26: hwrwrwr (PEPTIDE ID NO: 326) (peptide)
peptide: [dH][dW][dR][dW][dR][dW][dR]
B27: lkleirwh (PEPTIDE ID NO: 429) (peptide)
peptide: [dL][dK][dL][dE][dI][dR][dW][dH]
B28: felhikwh (PEPTIDE ID NO: 134) (peptide)
peptide: [dF][dE][dL][dH][dI][dK][dW][dH]
B29: lkiwikyh (PEPTIDE ID NO: 212) (peptide)
peptide: [dL][dK][dI][dW][dI][dK][dY][dH]
B30: wrlkvrwf (PEPTIDE ID NO: 218) (peptide)
peptide: [dW][dR][dL][dK][dV][dR][dW][dF]
B31: twrlkvrw (PEPTIDE ID NO: 205) (peptide)
peptide: [dT][dW][dR][dL][dK][dV][dR][dW]
B32: wriwiryw (PEPTIDE ID NO: 105) (peptide)
peptide: [dW][dR][dI][dW][dI][dR][dY][dW]
B33: wrlevrw (PEPTIDE ID NO: 315) (peptide)
peptide: [dW][dR][dL][dE][dV][dR][dW]
B34: rlrihww (PEPTIDE ID NO: 164) (peptide)
peptide: [dR][dL][dR][dI][dH][dW][dW]
B35: lkiuihy (PEPTIDE ID NO: 321) (peptide)
peptide: [dL][dK][dI][dNle][dI][dH][dY]
B36: wklklrww (PEPTIDE ID NO: 13) (peptide)
peptide: [dW][dK][dL][dK][dL][dR][dW][dW]
B37: lkirifyh (PEPTIDE ID NO: 214) (peptide)
peptide: [dL][dK][dI][dR][dI][dF][dY][dH]
B38: wrlnvrw (PEPTIDE ID NO: 306) (peptide)
peptide: [dW][dR][dL][dN][dV][dR][dW]
B39: hrlkvrwh (PEPTIDE ID NO: 213) (peptide)
peptide: [dH][dR][dL][dK][dV][dR][dW][dH]
B40: fririhhf (PEPTIDE ID NO: 113) (peptide)
peptide: [dF][dR][dI][dR][dI][dH][dH][dF]
B41: leirihy (PEPTIDE ID NO: 316) (peptide)
peptide: [dL][dE][dI][dR][dI][dH][dY]
B42: welrihw (PEPTIDE ID NO: 322) (peptide)
peptide: [dW][dE][dL][dR][dI][dH][dW]
B43: lrlkvrwl (PEPTIDE ID NO: 210) (peptide)
peptide: [dL][dR][dL][dK][dV][dR][dW][dL]
B44: rwrlkvrw (PEPTIDE ID NO: 217) (peptide)
peptide: [dR][dW][dR][dL][dK][dV][dR][dW]
B45: rlrihwf (PEPTIDE ID NO: 446) (peptide)
peptide: [dR][dL][dR][dI][dH][dW][dF]
B46: lkiriehy (PEPTIDE ID NO: 155) (peptide)
peptide: [dL][dK][dI][dR][dI][dE][dH][dY]
B47: lklkikhf (PEPTIDE ID NO: 154) (peptide)
peptide: [dL][dK][dL][dK][dI][dK][dH][dF]
B48: lkimihy (PEPTIDE ID NO: 317) (peptide)
peptide: [dL][dK][dI][dM][dI][dH][dY]
B49: wlrvqvkw (PEPTIDE ID NO: 111) (peptide)
peptide: [dW][dL][dR][dV][dQ][dV][dK][dW]
B50: kwrlkvrw (PEPTIDE ID NO: 207) (peptide)
peptide: [dK][dW][dR][dL][dK][dV][dR][dW]
B51: lkirilyh (PEPTIDE ID NO: 208) (peptide)
peptide: [dL][dK][dI][dR][dI][dL][dY][dH]
B52: wtlrihw (PEPTIDE ID NO: 305) (peptide)
peptide: [dW][dT][dL][dR][dI][dH][dW]
B53: feirihyh (PEPTIDE ID NO: 442) (peptide)
peptide: [dF][dE][dI][dR][dI][dH][dY][dH]
B54: lkirfhy (PEPTIDE ID NO: 211) (peptide)
peptide: [dL][dK][dI][dR][dF][dH][dY]
B55: lkiriwyh (PEPTIDE ID NO: 206) (peptide)
peptide: [dL][dK][dI][dR][dI][dW][dY][dH]
B56: yhlklhyw (PEPTIDE ID NO: 440) (peptide)
peptide: [dY][dH][dL][dK][dL][dH][dY][dW]
B57: lrvqvrl (PEPTIDE ID NO: 441) (peptide)
peptide: [dL][dR][dV][dQ][dV][dR][dL]
B58: lkiriheh (PEPTIDE ID NO: 318) (peptide)
peptide: [dL][dK][dI][dR][dI][dH][dE][dH]
B59: wrlkvra (PEPTIDE ID NO: 323) (peptide)
peptide: [dW][dR][dL][dK][dV][dR][dA]
B60: wwlklrww (PEPTIDE ID NO: 81) (peptide)
peptide: [dW][dW][dL][dK][dL][dR][dW][dW]
B61: frvkiqhw (PEPTIDE ID NO: 120) (peptide)
peptide: [dF][dR][dV][dK][dI][dQ][dH][dW]

What follows are binders tested against Tau40 P301L protein (human) (assay: cell-based or functional assay).

| IC50, Tau40 assay (ThT) | Binder |
| --- | --- |
| 2630 nM | B1 |
| 2040 nM and 2200 nM | B2 |
| 790 nM | B3 |
| 2280 nM | B4 |
| 2270 nM | B5 |
| 830 nM | B6 |
| 820 nM | B7 |
| 2470 nM | B8 |
| 830 nM | B9 |
| 2070 nM | B10 |
| 840 nM | B11 |
| 2670 nM | B12 |
| 2560 nM and 2570 nM | B13 |
| 2650 nM | B14 |
| 2230 nM | B15 |
| 2110 nM and 2410 nM | B16 |
| 2030 nM | B17 |
| 2030 nM and 2060 nM | B18 |
| 2190 nM | B19 |
| 2360 nM | B20 |
| 310 nM and 320 nM | B21 |

| IC50, Tau40 assay (ThT) | Binder |
| --- | --- |
| 2300 nM | B22 |
| 2470 nM | B23 |
| 2260 nM and 950 nM and 2390 nM and 820 nM | B24 |
| 850 nM | B25 |
| 2690 nM | B26 |
| 2420 nM | B27 |
| 2340 nM | B28 |
| 810 nM | B29 |
| 840 nM | B30 |
| 750 nM | B31 |
| 2380 nM and 2610 nM | B32 |
| 2400 nM | B33 |
| 2050 nM | B34 |
| 2540 nM | B35 |
| 2560 nM | B36 |
| 820 nM | B37 |
| 2070 nM | B38 |
| 820 nM | B39 |
| 740 nM and 810 nM | B40 |
| 2430 nM | B41 |
| 2580 nM | B42 |

| IC50, Tau40 assay (ThT) | Binder |
| --- | --- |
| 810 nM | B43 |
| 830 nM | B44 |
| 2690 nM | B45 |
| 2450 nM | B46 |
| 2210 nM | B47 |
| 2440 nM | B48 |
| 2180 nM and 2210 nM | B49 |
| 780 nM | B50 |
| 790 nM | B51 |
| 2070 nM | B52 |
| 2590 nM | B53 |
| 810 nM | B54 |
| 780 nM | B55 |
| 2170 nM | B56 |
| 2130 nM | B57 |
| 2450 nM | B58 |
| 2610 nM | B59 |
| 2520 nM | B60 |
| 2490 nM | B61 |
